Like-named read-outs stand apart in the source and are kept apart here.
Experiments:
P6-AA-12HGe-R = target: T1, P6-AA-12HGe-R; assay: two-hybrid library CCmax; conditions: mean of both orientations;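 note: natural log of median RNA to DNA barcode read ratio; higher means stronger binding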
T1 chain: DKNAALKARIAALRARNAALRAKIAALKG

P6-AA-12HGe-A = target: T2, P6-AA-12HGe-A; assay: two-hybrid library CCmax; conditions: mean of both orientations;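 note: natural log of median RNA to DNA barcode read ratio; higher means stronger binding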
T2 chain: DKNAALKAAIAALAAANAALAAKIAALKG

P6-AA-12HGe-T = target: T3, P6-AA-12HGe-T; assay: two-hybrid library CCmax; conditions: mean of both orientations;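 note: natural log of median RNA to DNA barcode read ratio; higher means stronger binding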
T3 chain: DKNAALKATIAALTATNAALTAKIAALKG

P6-AA-12HGe-Q = target: T4, P6-AA-12HGe-Q; assay: two-hybrid library CCmax; conditions: mean of both orientations;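 note: natural log of median RNA to DNA barcode read ratio; higher means stronger binding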
T4 chain: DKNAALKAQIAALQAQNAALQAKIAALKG

P6-AA-12HGe-H = target: T5, P6-AA-12HGe-H; assay: two-hybrid library CCmax; conditions: mean of both orientations;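 note: natural log of median RNA to DNA barcode read ratio; higher means stronger binding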
T5 chain: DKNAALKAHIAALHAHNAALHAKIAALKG

P6-AA-12HGe-W = target: T6, P6-AA-12HGe-W; assay: two-hybrid library CCmax; conditions: mean of both orientations;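 note: natural log of median RNA to DNA barcode read ratio; higher means stronger binding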
T6 chain: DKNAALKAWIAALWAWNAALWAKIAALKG

P6-AA-12HGe-M = target: T7, P6-AA-12HGe-M; assay: two-hybrid library CCmax; conditions: mean of both orientations
T7 chain: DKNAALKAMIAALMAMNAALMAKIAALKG

P6-AA-12HGe-D = target: T8, P6-AA-12HGe-D; assay: two-hybrid library CCmax
T8 chain: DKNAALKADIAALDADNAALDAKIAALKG

P6-AA-12HGe-S = target: T9, P6-AA-12HGe-S; assay: two-hybrid library CCmax; conditions: mean of both orientations
T9 chain: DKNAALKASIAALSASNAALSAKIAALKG

P6-AA-12HGe-K = target: T10, P6-AA-12HGe-K; assay: two-hybrid library CCmax; conditions: mean of both orientations
T10 chain: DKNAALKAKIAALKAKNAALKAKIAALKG

O8-bP = target: T11, O8-bP; assay: two-hybrid library CCNG1
T11 chain: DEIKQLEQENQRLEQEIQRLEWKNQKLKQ

4H3462-bN = target: T12, 4H3462-bN; assay: two-hybrid library CCNG1
T12 chain: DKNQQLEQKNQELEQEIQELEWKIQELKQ

4H3613-bN = target: T13, 4H3613-bN; assay: two-hybrid library CCNG1
T13 chain: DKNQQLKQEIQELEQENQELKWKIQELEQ

4H3628-bN = target: T14, 4H3628-bN; assay: two-hybrid library CCNG1
T14 chain: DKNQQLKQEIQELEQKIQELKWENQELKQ

4H3497-bN = target: T15, 4H3497-bN; assay: two-hybrid library CCNG1
T15 chain: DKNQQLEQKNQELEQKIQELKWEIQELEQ

4H3926-bN = target: T16, 4H3926-bN; assay: two-hybrid library CCNG1
T16 chain: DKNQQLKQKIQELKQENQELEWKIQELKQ

4H906-bN = target: T17, 4H906-bN; assay: two-hybrid library CCNG1
T17 chain: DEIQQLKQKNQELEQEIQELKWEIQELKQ

4H591-bN = target: T18, 4H591-bN; assay: two-hybrid library CCNG1
T18 chain: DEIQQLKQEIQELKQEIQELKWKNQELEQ

4H626-bN = target: T19, 4H626-bN; assay: two-hybrid library CCNG1
T19 chain: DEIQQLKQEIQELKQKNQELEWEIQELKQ

DENAALEAQIAALQAQNAALQAEIAALEG [P5-AA-12HGe-Q] was tested, and the interaction score (P6-AA-12HGe-R) was 1.09, the interaction score (P6-AA-12HGe-A) was 1.19 and the interaction score (P6-AA-12HGe-T) was 1.2. The interaction score (P6-AA-12HGe-Q) was 1.76, the interaction score (P6-AA-12HGe-H) was -0.211 and the interaction score (P6-AA-12HGe-W) was -1.08. For the same binder, the interaction score (P6-AA-12HGe-M) was 1.12, the interaction score (P6-AA-12HGe-D; mean of both orientations) was -1.9 and the interaction score (P6-AA-12HGe-S) was 0.0975. For the same binder, the interaction score (P6-AA-12HGe-K) was 1.68.

DKNQQLEQKNQELEQEIQELEWKIQELKQ [4H3462-bN] was tested, and the interaction score (O8-bP) was -2.6, the interaction score (4H3462-bN) was 0.127 and the interaction score (4H3613-bN) was -0.0373. The interaction score (4H3628-bN) was 0.522, the interaction score (4H3497-bN) was 0.781 and the interaction score (4H3926-bN) was -0.216. For the same binder, the interaction score (4H906-bN) was -0.328, the interaction score (4H591-bN) was -0.826 and the interaction score (4H626-bN) was 0.696.

In the case of DENAALEAMIAALMAMNAALMAEIAALEG [P5-AA-12HGe-M], the interaction score (P6-AA-12HGe-R) is reported as 0.594, the interaction score (P6-AA-12HGe-A) is reported as 1.15 and the interaction score (P6-AA-12HGe-T) is reported as 1.54. For the same binder, the interaction score (P6-AA-12HGe-Q) was 2.16, the interaction score (P6-AA-12HGe-H) was -0.103 and the interaction score (P6-AA-12HGe-W) was -0.0463. For the same binder, the interaction score (P6-AA-12HGe-M) was 0.995, the interaction score (P6-AA-12HGe-D) was -1.48 and the interaction score (P6-AA-12HGe-S) was -0.47. The interaction score (P6-AA-12HGe-K) was 1.12.

DENAALEARIAALRARNAALRAEIAALEG [P5-AA-12HGe-R] gave an interaction score (P6-AA-12HGe-R) of -1.36, an interaction score (P6-AA-12HGe-A) of 0.13 and an interaction score (P6-AA-12HGe-T) of -0.204. The interaction score (P6-AA-12HGe-Q) was 1.15, the interaction score (P6-AA-12HGe-H) was -1.35 and the interaction score (P6-AA-12HGe-W) was -1.7. For the same binder, the interaction score (P6-AA-12HGe-M) was -0.376, the interaction score (P6-AA-12HGe-D; mean of both orientations) was -0.685 and the interaction score (P6-AA-12HGe-S) was -0.593. It also gave an interaction score (P6-AA-12HGe-K) of -0.748.

With DENAALEAEIAALEAENAALEAEIAALEG [P5-AA-12HGe-E] the interaction score (P6-AA-12HGe-R) was 1.58, the interaction score (P6-AA-12HGe-A) was 1.23 and the interaction score (P6-AA-12HGe-T) was 0.892. For the same binder, the interaction score (P6-AA-12HGe-Q) was 2.02, the interaction score (P6-AA-12HGe-H) was 2.11 and the interaction score (P6-AA-12HGe-W) was -0.981. For the same binder, the interaction score (P6-AA-12HGe-M) was 0.542, the interaction score (P6-AA-12HGe-D; mean of both orientations) was -1.51 and the interaction score (P6-AA-12HGe-S) was -0.0947. The interaction score (P6-AA-12HGe-K) was 1.8.

Binder DENAALEAHIAALHAHNAALHAEIAALEG [P5-AA-12HGe-H] has an interaction score (P6-AA-12HGe-R) of -1.38, an interaction score (P6-AA-12HGe-A) of -1.29 and an interaction score (P6-AA-12HGe-T) of -1.15. For the same binder, the interaction score (P6-AA-12HGe-Q) was -0.057, the interaction score (P6-AA-12HGe-H) was -1.62 and the interaction score (P6-AA-12HGe-W) was -2.54. The interaction score (P6-AA-12HGe-M) was -1.41, the interaction score (P6-AA-12HGe-D; mean of both orientations) was -1.79 and the interaction score (P6-AA-12HGe-S) was -2. For the same binder, the interaction score (P6-AA-12HGe-K) was -1.26.
